{
  "source": "paper PMC7143314",
  "origin": "cited, not measured here",
  "molecular_target": "RAF RBD (Homo sapiens) (UniProt P04049)",
  "note": "pKd: −log10 of the molar value.",
  "data": [
    {"substance": "RAS (from UniProt P01116)", "values": [
      {"measurement": "pKd", "value": 7.70}
    ]}
  ]
}
